Measurements published in patent US20230227580A1, “ANTI-VWF ANTIBODIES AND USES THEREOF” (MONASH UNIVERSITY, priority 2020, published 2023).
“Also recorded” adds a separate entry of the source.

Assays:
[1] = system: VWF-GPIb binding (plasma VWF, isolated platelets); assay: Ristocetin-induced platelet agglutination test (RIPA); format: cell-based, human
Description: Platelet-poor plasma (PPP; source of plasma VWF) was prepared by centrifugation of citrated whole blood at 300 × g for 10 min to obtain platelet rich plasma (PRP) and further centrifugation of the PRP fraction at 1700 × g for 7 min. Isolated platelets (3 × 10^8/ml) suspended in platelet wash buffer (4.3 mM K2HPO4, 4.3 mM Na2HPO4, 24.3 mM NaH2PO4, 113 mM NaCl, 5.5 mM D-glu cose, and 10 mM theophylline, pH 6.5) were centrifuged at 1500 × g for 7 min. The washed platelets were subsequently resuspended at the same concentration in modified Tyrode’s buffer (10 mM Hepes, 12 mM NaHCO3, 137 mM NaCl, 2.7 mM KCI and 5 mM glucose, pH 7.3) containing calcium (1 mM), magnesium (1 mM) and apyrase (0.02 U ml^-1) (ADPase activity). Isolated platelets (150, 300 µL at 3 × 10^8/ml) and platelet poor plasma (50 µl) were incubated with 2, 2.5, 4, 5, 40 and 80 µg ml^-1 scFv A1 and the corresponding concentration of control scFv, or Tyrode’s buffer was used to neutralise any other aggregation mechanisms beside the VWF A1-GPlbα interaction. Platelet agglutination in response to 0.75 mg mL^-1 ristocetin (Helena Biosciences, Gateshead, UK) and in the presence of the αIIbβ3 (GPIIb/IIIa) blocker Integrilin was performed for 10 min on an AggRam system from Helena Laboratories, USA

[2] = system: platelet aggregation / thrombus formation; assay: Progressive shear gradient flow model: whole blood over collagen type I patches in straight channels; format: cell-based, human; conditions: scFv A1 5 µg ml^-1, 1,000 s^-1
Excerpt: Fluid dynamics were simulated with a COMSOL Multiphysics 4.2 laminar flow module applied to three-dimensional meshes. For all simulations, no-slip boundary conditions and Newtonian fluids were assumed. To obtain meshes from the plain channel geometries, channel dimensions were taken from the original computer-aided design (CAD) files and reconstructed in COMSOL. To obtain meshes from platelet aggregate geometries, confocal fluorescence microscopy image z-stacks of labeled platelets were processed in ImageJ. Each image in a z-stack was converted into a binary image by thresholding, and an x-y heightmap was constructed by summing all binary data in a z-stack followed by multiplying the result with the height of the original z-stack as documented by the confocal microscope. […] Input flow parameters were set based on pump settings as used in the experiments, and were adjusted to account for the reduced width of the fluorescence aggregate meshes compared to the full channel geometries. […]
Citrated whole blood was incubated with DiOC6 (0.5 µg ml^-1) (Sigma-Aldrich Co, St. Louis, MO, USA) and drawn through microfluidic channels by a programmable syringe pump (Legato 130, KD Scientific, USA). […] Platelet deposition was recorded over time (2 frames per minute) for up to 20 minutes and quantified in ImageJ using a Z-projection of the acquired signal.

[3] = target: VWF (Homo sapiens, UniProt P04275); assay: VWF binding in the presence or absence of ristocetin (FIG. 7)
[4] = system: VWF-GPIbα bond strength (platelets rolling on VWF-collagen III); assay: Platelet rolling velocity on collagen III bound VWF in stenotic or straight microfluidic channels; format: cell-based, human; conditions: scFv A1
Excerpt: In-house designed PDMS microfluidic chips (FIG. 1A) contained channels of 52 µm height with a footprint of 300 µm x 46 mm (used in FIG. 1) or 300 µm x 17 mm. Selected channels incorporated a semi-circular stenotic section of various lengths (600 µm, 1000 µm or 2000 µm diameter), creating 80% lumen reduction. Chips were manufactured as previously reported (Westein et al. Proceedings of the National Academy of Sciences of the United States of America. 2013 Jan 22;110(4):1357-62). The produced PDMS chips were sealed with cover slips by hydrophobic interaction and coated with collagen by perfusion of collagen solution followed by static incubation at RT for at least 1 hr. Channels were rinsed with PBS and blocked with 2% BSA. Wall shear rates of the input flow for these microchannels were approximated from volumetric flow rates by using the equation, γ = 6Q/wh2. […]
For experiments measuring rolling velocities, anti αllbβ3 antibody (abciximab; 20 µg ml^-1)-treated whole blood containing 0.5 µg ml^-1 DiOC6 was drawn over a collagen type III-coated surface. […] 10 second video clips of rolling platelets were recorded in the green fluorescent channel using an Olympus IX81 microscope system. Platelet rolling velocities were calculated using Diatrack v3.04 large scale particle tracking software (Vallotton et al. Microsc Microanal. 2013 Apr;19(2):451-60).

[5] = target: T1, isolated VWF A1 domain (Homo sapiens, UniProt P04275); assay: ELISA binding to isolated VWF A1 domain; conditions: scFv A1 5 µg ml^-1
T1 construct: coated with purified full length VWF or isolated A1 domain
Description: ELISA wells (Thermo Fisher Scientific) were coated with purified full length VWF or isolated A1 domain at 0.1, 1 and 10 µg ml^-1 in the presence of ristocetin (0.75 mg ml^1) and blocked with 2% BSA. Next, the coated wells were incubated with 5 µg ml^-1 of scFv A1 or sheep anti-VWF antibody followed by incubation with an HRP-conjugated secondary antibody (Anti-his HRP for scFv A1, Donkey anti-sheep HRP antibody for sheep anti-VWF antibody) (1:4,000). Readings were measured at 450 nm on a BMG Optima multi-well reader.

Mechanism of VWF binding (dependence on conformation) [3]: conformational-dependent binding
Binding to isolated VWF A1 domain [5]: did not bind
B1: scFv A1: single chain antibody combining variable heavy chain of mAb CR1 with variable light chain of mAb CR2; VH SEQ ID NO: 11, VL SEQ ID NO: 10 (antibody, V domains shown)
VH: QVQLQQPGAELVRPGASVKLSCKASGYSFTNYWMSWVKQRPGQGLEWIGMIHPSDSDTRLNQKFKDKATLTVDKSSSTAYMQLSSPTSEDSAGLLLCKKFEGWLPVLLGPRHHSHSLLS
VL: DIELTQSPASLAVSLGQSYRASCKSVSTSGYSYMHWNQQKPGQPPRLLIYLVSNLESGVPARFSGSGSGTDFTLNIHPVEEEDAATYYCQHIRELTRSEGDQAEINR
modifications: scFv linker; Mouse
Ristocetin-induced platelet agglutination ([1]; plasma VWF preincubated with scFv A1 and ristocetin prior to platelet binding): minor inhibitory effect
Ristocetin-induced agglutination of isolated platelets ([1]; scFv A1 up to 80 µg ml^-1, ristocetin 0.75 mg ml^-1, plasma VWF present): did not result in delayed or reduced agglutination
Platelet aggregation in the rear area of the collagen patch ([2]; constant shear, SRGs absent): did not reduce; also recorded: not at the rear
Platelet aggregation at the front area of the collagen patch ([2]; local shear gradient): selectively attenuated; also recorded: inhibited platelet aggregation only at the front of the patch
Effect on platelet rolling velocities ([4]; areas other than the stenosis apex): largely unaffected
Platelet rolling velocity ([4]; stenosis apex, control 4.41±0.1, p=0.038): 4.6±0.1 µm s^-1
